{"source": "patent US20250249076A1", "about": "“Composition Comprising a Combination of Lactoferrin and a Sulphated Polysaccharide” (Reckitt Benckiser Health Limited, priority 2022, published 2025)", "molecules": {"B1": {"name": "lactoferrin: iron-binding cationic glycoprotein belonging to the family of transferrins; bovine lactoferrin used in the Examples (protein, UniProt P24627 20-708, looked up)", "Lactotransferrin": "APRKNVRWCTISQPEWFKCRRWQWRMKKLGAPSITCVRRAFALECIRAIAEKKADAVTLDGGMVFEAGRDPYKLRPVAAEIYGTKESPQTHYYAVAVVKKGSNFQLDQLQGRKSCHTGLGRSAGWIIPMGILRPYLSWTESLEPLQGAVAKFFSASCVPCIDRQAYPNLCQLCKGEGENQCACSSREPYFGYSGAFKCLQDGAGDVAFVKETTVFENLPEKADRDQYELLCLNNSRAPVDAFKECHLAQVPSHAVVARSVDGKEDLIWKLLSKAQEKFGKNKSRSFQLFGSPPGQRDLLFKDSALGFLRIPSKVDSALYLGSRYLTTLKNLRETAEEVKARYTRVVWCAVGPEEQKKCQQWSQQSGQNVTCATASTTDDCIVLVLKGEADALNLDGGYIYTAGKCGLVPVLAENRKSSKHSSLDCVLRPTEGYLAVAVVKKANEGLTWNSLKDKKSCHTAVDRTAGWNIPMGLIVNQTGSCAFDEFFSQSCAPGADPKSRLCALCAGDDQGLDKCVPNSKEKYYGYTGAFRCLAEDVGDVAFVKNDTVWENTNGESTADWAKNLNREDFRLLCLDGTRKPVTEAQSCHLAVAPNHAVVSRSDRAAHVKQVLLHQQALFGKNGKNCPDKFCLFKSETKNLLFNDNTECLAKLGGRPTYEEYLGTEYVTAIANLKKCSTSPLLEACAFLTR"}}, "key": {"[1]": {"tested_on": "Lactobacilli at the level of the vaginal flora", "details": "vaginal use; cited from earlier work"}, "[2]": {"tested_on": "Lactobacillus jensenii 25258", "assay": "96-well chequerboard growth assay (optical density over 48 hours), prebiotic effect", "type": "cell-based", "details": "bacteria exposed to the ingredient alone; FIG. 5", "protocol": "A stock solution of 8 mg/mL bovine lactoferrin, was prepared by adding the appropriate amount of sterile MilliQ water to the weighted compound, followed by vortexing and filter-sterilizing. A stock solution of 2 mg/ml of each of the carrageenans (κ-, I-, λ-) was prepared by adding the appropriate amount of sterile MilliQ water to the weighted compound, incubated at 37° C. for 30 minutes, followed by vortexing until clear, and filter-sterilizing. […] The stock solution of lactoferrin was serially diluted in a broth-based media (appropriate for growth of the particular microorganism to be assayed) along the rows of the microtiter plate. The stock solution of carrageenan (κ-, I-, or λ-) was serially diluted in a broth-based media (appropriate for growth of the particular microorganism) along the columns of the microtiter plate. The final volume of media in each well was 0.1 mL. Each well containing lactoferrin and/or carrageenan (κ-, I-, or λ-) was inoculated with log-phase bacteria/yeast at a concentration of 5×10^5 colony forming units (CFU)/well. […] After addition of the relevant microorganism, plates were sealed with optical quality film, and incubated within the plate reader at the appropriate growth temperature for the microorganism being assayed. The optical density (OD) was recorded every 15 minutes for a period of 48 hours to evaluate the microorganism growth and biomass formation."}}}
{"molecule": "B1", "values": [{"measurement": "presence of Lactobacilli at the level of the vaginal flora", "setting": "[1]", "value": "able to increase the presence of Lactobacilli"}, {"measurement": "viability / phase of the bacterial growth cycle of L. jensenii 25258", "setting": "[2]", "value": "enters the death phase"}]}
